# In patent US11340233B2, “Universal method to capture and analyze ADCs for characterization of drug distribution and the drug-to-antibody ratio in biological samples” (priority 2016, dated 2022):
# How the values were obtained:
# [1] = In vitro ADC stability in cynomolgus monkey serum, immunoprecipitation, reduction and LC-MS; assay type: in vitro ADME, Cynomolgus (Macaca fascicularis); details: spiked 100 μg/mL, 37° C.
# Description: (§1) ADCs were spiked in sterile mouse, rat or cynomolgus serum at a concentration of 100 μg/ml. Aliquots of 100 μl were incubated at +37° C. in Protein LoBind Tube (Eppendorf, Montesson, France). At specific times (day 1, day 4, day 7 and day 11) samples were removed from the oven and stored at −20° C. until sample processing and analysis.
# ADCs were immunoprecipitated from sera using the following protocol. Briefly, 100 μl M-280 Streptavidin magnetics beads suspension were washed three times with HBS-EP buffer (0.01 M HEPES pH 7.4, 0.15 M NaCl, 3 mM EDTA, 0.005% v/v Surfactant P20) and incubated for 30 min at RT with the CaptureSelect™ Human IgG-Fc PK Biotin conjugate. Serum samples from stability studies were then added to the beads and incubated for 2 h at RT. After washing steps with HBS-EP buffer and HBS buffer (10 mM HEPES, 150 mM NaCl, 3 mM EDTA pH 7.6), the ADC was eluted with 0.4% TFA in water. After freeze drying, the samples were reconstituted and incubated with 34 mM DTT in denaturing buffer (6 M Guanidine, 0.1 M Tris, 2 mM EDTA pH 8.0) for 45 min at 56° C.
# Acetic acid was then added to quench the reaction and samples were analysed by LC-MS.
# Reverse phase separation was performed on an ultra-high performance liquid chromatography (UHPLC) system (Acquity UPLC H-Class Bio system, Waters) coupled to a Synapt G2si mass spectrometer, instrument control was performed using MassLynx® software (Waters).
# The reduced samples were directly injected on a PLRP-S column (2.1×150 mm 8 μm, 1000 Å, Agilent) heated at 80° C. with a flow rate of 0.5 ml/min. Elution was performed with water as eluent A and acetonitrile as eluent B, both containing 0.05% TFA. The following elution gradient was applied, B was raised from 30% to 45% in 13 min and then from 45% to 95% in 2 min. The column was washed using 95% B and equilibrated using 30% B for 10 min. The autosampler temperature was set at 10° C. […]
# Data were analysed using Biopharmalynx™ (Waters) software. […]
# [2] = In vitro stability in cynomolgus monkey serum by total antibody and ADC ELISAs; assay type: in vitro ADME, Cynomolgus (Macaca fascicularis); details: 37° C., ELISA
# Description: as §1
# Four different Ligand Binding Assay (LBAs) systems were used to determine Total Ab or ADC concentrations for ADC1 and ADC2[19]. More precisely, an antigen-specific assay was used for ADC1 and a universal method for ADC2. For the ADC quantification, specific anti-drugs were used relevant to the payload of the ADC.
# Briefly, standard microtiter plates (MSD, Gaithersburg, USA) were coated at a concentration of 2 μg/ml Goat anti Human IgG, Monkey adsorbed antibody (SouthernBiotech) for Total Ab or of 3 μg/ml mouse monoclonal antibody raised against the payloads (Epitope Diagnostic Inc.) for ADC assays in PBS. After an overnight incubation at 4° C., plates were treated with blocking buffer (3% MSD Blocker A (MSD, Gaithersburg, USA)) for 1 h at 37° C. In parallel, the standard curves (1000 ng/ml-0.488 ng/ml) using reference immunoconjugates (ADC1 or ADC2) were prepared in assay buffer (1% MSD Blocker in TBS+0.02% Tween 20). Serum samples were diluted to 1:1000 or 1:5000 in a separate 2-ml deep 96-well polypropylene plate in MSD assay buffer. Standards and samples were then loaded onto the assay plate and incubated for 1 h at 37° C. After washing with 1×PBS, the detection step was done using a 2.5 μg/ml solution of the biotinylated antigen for the ADC1 (in house preparation) or a goat anti-human Ig Kappa sulfo-tag solution (in house preparation) diluted to 1 μg/ml in assay buffer for ADC2. After a 30-min incubation at 37° C., and a washing step, the detection was allowed by adding 150 μl of a 2×MSD-read T buffer containing surfactant (MSD, Gaithersburg, USA) just before reading using MSD Sector Imager.
# The amount of total antibody and ADC, in serum samples was evaluated in parallel by a quantitative sandwich ELISA. […]
substance,measurement,setting,value
Brentuximab vedotin [ADC2],average DAR,[1]; day 0,4.5
same,average DAR,[1]; day 4,2.0
same,average DAR,[1]; days 4 to 11,stable
same,ADC level normalized against the total Ab concentration at each time point,[2]; 11 days,decreased mainly during the four first days
same,ADC concentration,[2]; over the 11-day period,decreased during this period
same,total Ab level,[2]; over the 11-day period,~100 µg/mL
